No end group written: not given here.
Tests used:
NMDAR/PSD-95 interaction = NMDAR/PSD-95 interaction (Rattus norvegicus, UniProt P31016); assay type: binding; settings: as compared with controls
[1] = test system: cultured cortical neurons; test: Intracellular peptide delivery into cortical neuronal cultures (dansyl fluorescence, confocal microscopy); assay type: cell-based, mouse; settings: bath applied to cultured cortical neurons; dansyl peptides 10 μM
Description: I bath applied these to cultured cortical neurons and observed their fluorescence by confocal microscopy. […] Tat-NR2B9c-dansyl was detectable in the neurons within 10 min of the start of the application and the peptide accumulated to a maximum level over the next 20 min (FIG. 5C). This level was maintained until the dansyl-Tat-NR2B9c was washed from the bath and the peptide remained detectable within the neurons for more than 5 hours thereafter.

Sequence of NMDAR/PSD-95 interaction (P31016 whole entry): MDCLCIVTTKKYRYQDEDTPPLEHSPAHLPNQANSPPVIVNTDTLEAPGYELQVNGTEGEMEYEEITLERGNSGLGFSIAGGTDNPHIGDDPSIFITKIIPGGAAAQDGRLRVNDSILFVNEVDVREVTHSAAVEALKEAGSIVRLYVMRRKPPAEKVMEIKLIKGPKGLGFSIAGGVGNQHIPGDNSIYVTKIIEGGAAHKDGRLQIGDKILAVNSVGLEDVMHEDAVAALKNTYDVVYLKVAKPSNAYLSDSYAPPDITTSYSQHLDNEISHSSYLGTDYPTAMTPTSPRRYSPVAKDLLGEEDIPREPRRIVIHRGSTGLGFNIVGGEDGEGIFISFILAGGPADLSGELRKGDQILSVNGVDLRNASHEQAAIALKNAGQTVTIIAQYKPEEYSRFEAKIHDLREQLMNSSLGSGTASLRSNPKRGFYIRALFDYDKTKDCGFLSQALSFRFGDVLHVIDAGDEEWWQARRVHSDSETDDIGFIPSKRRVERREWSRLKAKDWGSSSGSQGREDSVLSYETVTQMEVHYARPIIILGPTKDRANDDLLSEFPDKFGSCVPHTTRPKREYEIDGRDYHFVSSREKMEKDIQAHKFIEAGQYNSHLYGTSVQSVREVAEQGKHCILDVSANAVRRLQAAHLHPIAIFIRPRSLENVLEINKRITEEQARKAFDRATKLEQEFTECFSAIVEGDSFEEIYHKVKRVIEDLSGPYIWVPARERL

| Sequence | reduction of co-immunoprecipitation of PSD-95 with NR2B (optical density signal) (NMDAR/PSD-95 interaction) | entry into cells / intracellular fluorescence [1] |
| --- | --- | --- |
| KALGISYGRKK [Tat38-48] | none of the three control peptides reduced | – |
| KLSSIESDV [NR2B9c] | – | did not enter cells |
